Assay [1] addresses duck egg lysozyme (DEL), soluble recombinant (duck) (UniProt P00705). Briefly: BLI; against WT HyHEL10 on DEL.
Assay [2] concerns the target HEL R21Q R73E L75A D101R (self with foreign 75) (hen) (UniProt P00698). Briefly: BLI; against I29F Fab on DEL.
Assay [3] has as its target HEL R21Q R73K D101R (self with foreign 73) (hen) (UniProt P00698). Kind of assay: BLI; against I29F Fab on DEL. In general terms: BLI is a label-free optical method that tracks binding on a fibre tip over time.
Assay [4] deals with HEL R21Q R73K L75A D101R (self with foreign 73, 75) (hen) (UniProt P00698). Briefly: BLI; against I29F Fab on DEL.
Assay [5] deals with duck egg lysozyme (DEL), soluble recombinant (duck) (UniProt P00705). Kind of assay: BLI; against I29F Fab on DEL.
In assay [6] the target is HEL^3X (hen egg lysozyme R21Q, R73E, D101R), soluble recombinant (hen) (UniProt P00698). Kind of assay: BLI; against I29F Fab on DEL.
The target of assay [7] is HEL R21Q G71R R73K L75A N77G D101R (self with foreign 71, 73, 75, 77) (hen) (UniProt P00698). Briefly: BLI; against I29F Fab on DEL.
Assay [8] concerns the target HEL^3X (hen egg lysozyme R21Q, R73E, D101R), soluble recombinant (hen) (UniProt P00698). Kind of assay: BLI; against WT HyHEL10 on HEL^3X.
Assay [9] deals with duck egg lysozyme (DEL), soluble recombinant (duck) (UniProt P00705). Briefly: BLI (BLItz), biotinylated Fab on streptavidin biosensor, soluble monomeric DEL 0.03-0.25 µM, global fit.
Assay [10] has as its target HEL R21Q R73E L75A D101R (self with foreign 75) (hen) (UniProt P00698). Kind of assay: BLI, Fab on streptavidin sensor.
Assay [11] has as its target HEL R21Q R73K D101R (self with foreign 73) (hen) (UniProt P00698). Briefly: BLI, Fab on streptavidin sensor.
For assay [12], the target named is HEL R21Q R73K L75A D101R (self with foreign 73, 75) (hen) (UniProt P00698). Kind of assay: BLI, Fab on streptavidin sensor.
Assay [13] addresses duck egg lysozyme (DEL), soluble recombinant (duck) (UniProt P00705). Kind of assay: BLI, Fab on streptavidin sensor.
Assay [14] has as its target HEL^3X (hen egg lysozyme R21Q, R73E, D101R), soluble recombinant (hen) (UniProt P00698). Briefly: BLI, Fab on streptavidin sensor.
The target in assay [15] is HEL R21Q G71R R73K L75A N77G D101R (self with foreign 71, 73, 75, 77) (hen) (UniProt P00698). Kind of assay: BLI, Fab on streptavidin sensor.
Assay [16] deals with HEL^3X (hen egg lysozyme R21Q, R73E, D101R), soluble recombinant (hen) (UniProt P00698). Kind of assay: BLI (BLItz), biotinylated Fab on streptavidin biosensor, soluble monomeric HEL3X, global fit.
Assay [17] has as its target duck egg lysozyme (DEL), soluble recombinant (duck) (UniProt P00705). Briefly: BLI (BLItz), biotinylated Fab on streptavidin biosensor, soluble monomeric DEL, global fit.
Assay [18] has the same target. Kind of assay: BLI; affinity for DEL against affinity for HEL^3X.
The target of assay [19] is HEL^3X (hen egg lysozyme R21Q, R73E, D101R), soluble recombinant (hen) (UniProt P00698). Kind of assay: BLI, highest concentration of HEL^3X tested.
Assay [20] addresses duck egg lysozyme (DEL), soluble recombinant (duck) (UniProt P00705). Kind of assay: BLI.
In assay [21] the target is HEL^3X (hen egg lysozyme R21Q, R73E, D101R), soluble recombinant (hen) (UniProt P00698). Kind of assay: BLI.
In assay [22] the target is duck egg lysozyme (DEL), soluble recombinant (duck) (UniProt P00705). Briefly: BLI (BLItz), biotinylated Fab on streptavidin biosensor, soluble monomeric DEL 0.025-0.25 µM, global fit.
The target is the same in assay [23]. Briefly: BLI (BLItz), biotinylated Fab on streptavidin biosensor, soluble monomeric DEL 0.03-0.5 µM, global fit.
In assay [24] the target is HEL^R21Q,R73E,C76S,C94S (HEL^2X-flex) (hen) (UniProt P00698). Briefly: BLI (Example 10).

Bounds are passed on as bounds.

Data on 14 substances can be found in patent US20210047428A1.

The term Kd denotes the concentration at which binding is half-saturated. On to HyHEL10 Fab I29F, for which the Fold change in assay [1] was 2.6 fold; in assay [2], -54.5 fold; in [3], -22.3 fold; in [4], -1.8 fold; in assay [5], 0 fold; in assay [6], -56.1 fold. The results for the Fold change in assay [7] and in assay [8] were -2 fold and -10.5 fold, respectively. The ΔΔG apparent in [1] is -0.6 kcal/mol; in assay [8], 1.4 kcal/mol. Also, the Ka in [9] stood at 6.4e+07 M⁻¹; in assay [16], 1.1e+06 M⁻¹. The Kd in assay [9] came out at 16 nM; in assay [10] it was 856 nM; in assay [11] it was 350 nM; in [12] it was 28 nM; in assay [13] it was 15 nM; in assay [14] it was 880 nM. Further, the results for the Kd in assay [15] and in assay [16] were 32 nM and 880 nM, respectively.
On to HyHEL10 Fab I29F/S52T, for which the ΔΔG apparent in assay [1] is -1.1 kcal/mol. Besides, in assay [17], the Ka turned out to be 1.7e+08 M⁻¹. Moreover, the dissociation constant (Kd) came to 5.8 nM in [17] and 6 nM in assay [13].
On to HyHEL10 Fab I29F/S52T/Y53F, for which the Fold change is 245 fold in [1] and -9.6 fold in assay [8]. The ΔΔG apparent is -3.3 kcal/mol in assay [1] and 1.3 kcal/mol in assay [8]. The Ka in assay [17] was 6.1e+09 M⁻¹. Further, the Kd was found to be 0.16 nM in assay [17], 0.164 nM in assay [13] and 807 nM in assay [14]. For the same substance, the fold differential binding to foreign (DEL) over self (HEL^3X) in [18] turned out to be 5000 fold.
In the case of HyHEL10 Fab I29F/S52T/Y58F, in assay [1], the Fold change came to 23.8 fold and the ΔΔG apparent was -1.9 kcal/mol. Also, the dissociation constant Kd in assay [13] is 2 nM.
Turning to HyHEL10 Fab I29F/Y53F, the ΔΔG apparent in assay [1] was -2.2 kcal/mol. In assay [17], the Ka amounted to 9.7e+08 M⁻¹ and the Kd came out at 1 nM. The Kd in assay [13] was 1 nM.
As for HyHEL10 Fab S52R, the fold lower affinity against unmutated HyHEL10 in [19] is over 100 fold.
Regarding HyHEL10 Fab S52R/Y53F, the fold lower affinity against unmutated HyHEL10 in assay [19] was over 100 fold.
Turning to HyHEL10 Fab S52T, in [1], the Fold change was 1.2 fold and the ΔΔG apparent was -0.1 kcal/mol. Also, in assay [17], the Ka worked out at 3e+07 M⁻¹ and the Kd was 34 nM. Besides, the Kd in [13] came out at 33 nM.
For the substance HyHEL10 Fab S52T/Y53F, the Fold change in assay [1] was 1.1 fold; in [8] it was -1.8 fold. Also, the values for the ΔΔG apparent in assay [1] and in assay [8] were -1.4 kcal/mol and 0.3 kcal/mol, respectively. The Ka in [17] came out at 2.8e+08 M⁻¹. Also, the figures for the Kd in assay [17], in assay [13] and in assay [14] were 3.6 nM, 3.6 nM and 152 nM, respectively.
Regarding HyHEL10 Fab S52T/Y53F/Y58F, the Fold change in [1] was determined as 80 fold; in [8], 3.5 fold. For the same substance, the ΔΔG apparent in [1] is -2.6 kcal/mol; in assay [8], -0.7 kcal/mol. Moreover, the Ka in assay [17] came to 1.99e+09 M⁻¹. For the same substance, the Kd in assay [17] turned out to be 0.5 nM; in assay [13] it was 0.5 nM; in [14], 24 nM. In addition, the fold lower affinity than the I29F-S52T-Y53F trio in assay [20] worked out at 3 fold. Also, the fold increase of affinity against unmutated HyHEL10 in assay [21] was determined as 4 fold.
As to HyHEL10 Fab S52T/Y58F, in [17], the Ka is 3.8e+08 M⁻¹ and the Kd is 2.6 nM. Moreover, the Kd in assay [13] was found to be 3 nM.
For HyHEL10 Fab Y53F, in assay [1], the Fold change amounted to 4.8 fold and the ΔΔG apparent was -0.9 kcal/mol. Besides, in assay [22], the Ka amounted to 1.2e+08 M⁻¹ and the Kd was 8.4 nM. For the same substance, the Kd in assay [13] came to 8 nM.
With HyHEL10 Fab Y58F, the ΔΔG apparent in [1] is -0.8 kcal/mol. Besides, the Ka in [17] was 9.4e+07 M⁻¹. Further, the Kd in assay [17] and in [13] was 11 nM throughout.
In the case of HyHEL10 Fab, wild-type, the Fold change in [1] and in assay [8] was 0 fold in each case. Besides, the ΔΔG apparent in assay [1] and in [8] was 0 kcal/mol throughout. In addition, the Kd in assay [13] was 40 nM; in assay [14] it was 84 nM; in [23], 40 nM; in assay [16], 84 nM. For the same substance, the figures for the Ka in assay [23], in [24] and in assay [16] were 2.5e+07 M⁻¹, 1.6e+07 M⁻¹ and 1.2e+07 M⁻¹, respectively.
